Assay results as given in US20250262210A1 (TRUSTEES OF COLUMBIA UNIVERSITY IN THE CITY OF NEW YORK, published 2025).

Target: T1, RNF123 (human, UniProt Q5XPI4 2-1314, limits assumed)
T1 sequence (looked up): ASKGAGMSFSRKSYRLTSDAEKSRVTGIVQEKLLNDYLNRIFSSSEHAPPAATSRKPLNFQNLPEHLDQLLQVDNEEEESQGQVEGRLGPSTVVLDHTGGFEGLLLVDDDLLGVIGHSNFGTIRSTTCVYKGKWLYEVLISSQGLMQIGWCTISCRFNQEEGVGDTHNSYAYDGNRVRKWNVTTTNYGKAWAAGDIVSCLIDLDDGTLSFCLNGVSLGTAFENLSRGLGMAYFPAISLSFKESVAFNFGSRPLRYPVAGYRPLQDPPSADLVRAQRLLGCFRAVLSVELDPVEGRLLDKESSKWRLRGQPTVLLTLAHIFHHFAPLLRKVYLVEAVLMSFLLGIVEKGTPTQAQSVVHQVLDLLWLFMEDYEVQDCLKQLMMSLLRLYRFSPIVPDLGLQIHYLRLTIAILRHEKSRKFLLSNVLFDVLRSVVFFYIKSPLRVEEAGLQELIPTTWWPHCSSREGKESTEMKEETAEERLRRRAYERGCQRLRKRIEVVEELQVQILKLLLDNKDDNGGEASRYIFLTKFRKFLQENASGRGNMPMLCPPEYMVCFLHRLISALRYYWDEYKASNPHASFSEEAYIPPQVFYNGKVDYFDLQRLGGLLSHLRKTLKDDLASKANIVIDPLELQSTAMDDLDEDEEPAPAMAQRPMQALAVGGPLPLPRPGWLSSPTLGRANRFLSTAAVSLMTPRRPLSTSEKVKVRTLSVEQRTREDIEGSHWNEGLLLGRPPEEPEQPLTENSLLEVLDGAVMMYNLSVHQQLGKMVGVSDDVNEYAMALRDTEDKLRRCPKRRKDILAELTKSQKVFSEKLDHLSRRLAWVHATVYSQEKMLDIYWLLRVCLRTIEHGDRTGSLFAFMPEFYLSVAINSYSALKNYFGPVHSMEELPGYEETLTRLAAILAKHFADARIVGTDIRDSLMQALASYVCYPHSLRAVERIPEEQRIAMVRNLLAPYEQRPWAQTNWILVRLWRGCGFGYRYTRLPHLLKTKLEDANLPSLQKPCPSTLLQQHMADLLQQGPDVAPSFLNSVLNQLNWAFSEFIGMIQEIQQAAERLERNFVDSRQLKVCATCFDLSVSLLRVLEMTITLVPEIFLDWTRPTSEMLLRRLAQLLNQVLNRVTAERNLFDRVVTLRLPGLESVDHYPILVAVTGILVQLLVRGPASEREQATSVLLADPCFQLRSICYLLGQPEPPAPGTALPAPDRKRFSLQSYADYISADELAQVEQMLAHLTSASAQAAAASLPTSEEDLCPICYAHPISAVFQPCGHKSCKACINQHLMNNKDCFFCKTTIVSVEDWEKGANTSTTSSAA
Test: IP/MS, LZTR1 wild type-FLAG, U87
Method in brief: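 Extracted peptides in 3% acetonitrile/0.1% formic acid ran on a 50 cm C18 column into an Orbitrap Fusion, with MaxQuant identification and spectral counting.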

- binding result: binds
B1: LZTR1-FLAG (other, human, UniProt Q8N653 1-840, looked up)
chain: MAGPGSTGGQIGAAALAGGARSKVAPSVDFDHSCSDSVEYLTLNFGPFETVHRWRRLPPCDEFVGARRSKHTVVAYKDAIYVFGGDNGKTMLNDLLRFDVKDCSWCRAFTTGTPPAPRYHHSAVVYGSSMFVFGGYTGDIYSNSNLKNKNDLFEYKFATGQWTEWKIEGRLPVARSAHGATVYSDKLWIFAGYDGNARLNDMWTIGLQDRELTCWEEVAQSGEIPPSCCNFPVAVCRDKMFVFSGQSGAKITNNLFQFEFKDKTWTRIPTEHLLRGSPPPPQRRYGHTMVAFDRHLYVFGGAADNTLPNELHCYDVDFQTWEVVQPSSDSEVGGAEVPERACASEEVPTLTYEERVGFKKSRDVFGLDFGTTSAKQPTQPASELPSGRLFHAAAVISDAMYIFGGTVDNNIRSGEMYRFQFSCYPKCTLHEDYGRLWESRQFCDVEFVLGEKEECVQGHVAIVTARSRWLRRKITQARERLAQKLEQEAAPVPREAPGVAAGGARPPLLHVAIREAEARPFEVLMQFLYTDKIKYPRKGHVEDVLLIMDVYKLALSFQLCRLEQLCRQYIEASVDLQNVLVVCESAARLQLSQLKEHCLNFVVKESHFNQVIMMKEFERLSSPLIVEIVRRKQQPPPRTPLDQPVDIGTSLIQDMKAYLEGAGAEFCDITLLLDGHPRPAHKAILAARSSYFEAMFRSFMPEDGQVNISIGEMVPSRQAFESMLRYIYYGEVNMPPEDSLYLFAAPYYYGFYNNRLQAYCKQNLEMNVTVQNVLQILEAADKTQALDMKRHCLHIIVHQFTKVSKLPTLRSLSQQLLLDIIDSLASHISDKQCAELGADI
notes: Expressed in HEK 293T, HeLa or U87 cells; used as cell lysate; also called LZTR1 wild type-FLAG; LZTR1 WT; not shown: FLAG tag at the C-terminus
